In patent US5326856A, “Bifunctional isothiocyanate derived thiocarbonyls as ligands for metal binding” (Cytogen Corporation, priority 1992, dated 1994):
Ends that are not written are not given here. chelating agent A = 3,5-di-(1-trimethylammoniumacetyl)-4-thiosemicarbazidobenzoic acid, dichloride salt

Legend:
clot [1] = experiment: Biodistribution by dissection in rabbits with induced thrombus; type: in vivo, New Zealand White rabbits; conditions: for 99M Tc / % ID/G (percent of injected dose per gram of tissue) / TISS:BLD / TISS:MUSC: 4 h after injection
Protocol: (§1) The specificity of uptake of Tc-99m labeled peptide […]-chelating agent A conjugate into rabbit thrombi was determined by directly comparing tissue uptake and images obtained in animals with an induced thrombus to those receiving a sham operation without induced thrombus.
Two groups of 3 rabbits were used. All animals were subjected to surgery to expose the superficial jugular vein as described in detail below. In the first group of animals, the jugular veins were clamped off and a silk thread was inserted into the jugular veins. These veins also received an injection of 10 units of bovine thrombin in 0.1 ml isotonic saline directly into the vein. The second (sham control) group of animals was subjected to the same surgical procedures as the experimental group except that no silk was inserted into the veins of these animals and the veins received an injection of 0.1 ml isotonic saline only. Due to logistical difficulties in handling six animals at one time, the experiment was conducted in three parts, each part consisting of one sham and one thrombus-induced animal done in parallel on each of 3 days. Specific pathogen-free New Zealand White rabbits (2-2.6 kg) were used.
The model system of Collen et al. (1983, J. Clin. Invest. 71:368-376) was used (with minor modifications described below) to induce experimental thrombi in rabbits. The animals were anesthetized by intramuscular injection of 40 mg/kg ketamine-HC1 and 4 mg/kg acepromazine maleate. Just prior to surgery, the animals received 10 mg/kg sodium pentobarbital, which was also administered as needed during the course of the surgery. The neck area was shaved and swabbed with disinfectant. The jugular vein was exposed by making about a 5 cm paramedial incision, the vein was freed from tissues over about a 4 cm distance (up to the main bifurcation of the facial vein) and the side branches of the jugular were ligated. A 1-inch segment was clamped off with hemostats and, in the experimental (group 1) animals, a silk thread was placed longitudinally inside the vein and was tied off at each end. No suture was placed in the veins of sham control (group 2) animals. Ten (10) units of bovine thrombin in 0.1 ml of isotonic saline (or saline alone in sham control animals) was injected into the clamped vein segment using a 27 gauge needle. Thirty minutes later, the animals were given an intravenous injection (in the contralateral marginal ear vein) of a mixture of 2-7 μCi of Tc-99m labelled peptide-chelating agent conjugate.
(§2) The peptide-chelating agent conjugate prepared as in Section 9, supra, was radiolabeled with Tc-99m as follows: Tc-99m was eluted from a molybdenum generator and adjusted to 40 mCi/ml with isotonic saline. Fifty (50) mCi of this preparation was transferred to a Glucoscan vial (Dupont, Billerica, MA) and mixed. Six (6) mCi of Tc-99m/glucoscan mixture was then added to a vial containing 50 μg of the peptide-chelating agent conjugate and incubated for 1 h at room temperature. After this incubation period the material was drawn into an appropriately labelled 5 ml syringe and a sample was analyzed by instant thin layer chromatography (ITLC) to determine radiochemical purity as described in Section 9, supra. This material was acceptable for injection into rabbits only if the radiochemical purity was ≥95% and the amount of radioactivity available for injection was within 20% of that required by this protocol (e.g., 4.8-7.3 mCi).
All animals were dissected 4 h (240 min) after injection. A 3 ml blood sample was drawn, after which the animals were euthanized with an i.v. injection of T-61 euthanasia solution (American Hoechst, Sommerville, N.J.). The vein segment was surgically removed and the thrombus therein (if any) was isolated from the vein. A segment of the contralateral vein was also removed and a sample of muscle was obtained from an area of the neck distal to the surgical field. […]

clot [2] = experiment: Gamma camera thrombus imaging in rabbits; type: in vivo, New Zealand White rabbits; conditions: FIG. 8
Protocol: as §1
Two groups of 3 rabbits were used. All animals were subjected to surgery to expose the superficial jugular vein as described in detail below. In the first group of animals, the jugular veins were clamped off and a silk thread was inserted into the jugular veins. These veins also received an injection of 10 units of bovine thrombin in 0.1 ml isotonic saline directly into the vein. […]
as §2, with “Fifty (50) mCi of this preparation was transferred to a Glucoscan vial (Dupont, Billerica, MA) and mixed. Six (6) mCi of Tc-99m/glucoscan mixture was then added to a vial containing 50 μg of the peptide-chelating agent conjugate and incubated for 1 h at room temperature.” left out, “mCi). […]” for “mCi).”

activated platelets = experiment: Aggregometer assay; type: cell-based

Substance | 99M Tc (clot [1]; Blood) | % ID/G (percent of injected dose per gram of tissue) (clot [1]; Blood) | 99M Tc (clot [1]; Clot (Target)) | % ID/G (percent of injected dose per gram of tissue) (clot [1]; Clot (Target)) | TISS:BLD (clot [1]; Clot (Target)) | TISS:MUSC (clot [1]; Clot (Target)) | 99M Tc (clot [1]; Muscle) | % ID/G (percent of injected dose per gram of tissue) (clot [1]; Muscle) | 99M Tc (clot [1]; Vessel) | % ID/G (percent of injected dose per gram of tissue) (clot [1]; Vessel) | TISS:BLD (clot [1]; Vessel) | TISS:MUSC (clot [1]; Vessel) | clot % ID/G relative to blood (clot [1]; clot vs blood) | clot % ID/G relative to the blood vessel (clot [1]; clot vs blood vessel) | % ID/G for the clot (clot [1]; clot, percent of injected dose per gram of tissue) | localization to clot in gamma camera imaging (clot [2]; 2 hours and 4 hours) | blood pool accumulation, area of the head (clot [2]; gamma camera image) | IC50 (activated platelets) | clot-binding potency relative to the native peptide (activated platelets; relative to native peptide)
Tc-99m-labeled SYRGDVRGDF-chelating agent A conjugate: peptide-chelating agent conjugate prepared as in Section 9, radiolabeled with Tc-99m (SYRGDVRGDF-NH2; not fully specified (N-terminus); also: chelating agent A conjugate, site not given here, Tc-99m labelled (metal complex)) | 318229 | 0.0399 % ID/G | 94319 | 0.3312 % ID/G | 28.30 | 27.83 | 22369 | 0.0119 % ID/G | 95629 | 0.0870 % ID/G | 2.18 | 7.28 | 8 fold | 4 fold | 0.33% | localization of Tc-99m-labeled SYRGDVRGDF-chelating agent A conjugate to a clot | blood pool accumulation of peptide-chelating agent A, which is non-specific |  | 
Chelating Agent A-NH-SYRGDVRGDF: chelating agent A coupled with SYRGDVRGDF-NH2 peptide ({chelating agent A}-SYRGDVRGDF-NH2) |  |  |  |  |  |  |  |  |  |  |  |  |  |  |  |  |  | 19.3 µM | full or even enhanced clot-binding potency
SYRGDVRGDF [reference compound] |  |  |  |  |  |  |  |  |  |  |  |  |  |  |  |  |  | 28.8 µM | 
